Common to all, as to experiment: purified protein
What all share (type): biochemical, Vitis vinifera

Substrate in data set [1]: O=C(O)C1=C[C@@H](O)[C@@H](O)[C@H](O)C1
The note with it: 2 mM NADP+, pH 9, 100 mM Bis-Tris Propane HCl, 30 °C.

Substrate in data set [2]: NC(=O)c1ccc[n+]([C@@H]2O[C@H](COP(=O)(O)OP(=O)(O)OC[C@H]3O[C@@H](n4cnc5c(N)ncnc54)[C@H](OP(=O)(O)O)[C@@H]3O)[C@@H](O)[C@H]2O)c1
The note with it: 4 mM shikimate, pH 9, 100 mM Bis-Tris Propane HCl, 30 °C.

Substrate in data set [3]: O=C(O)C1=CC(=O)[C@@H](O)[C@H](O)C1
To be noted: 0.4 mM NADPH, pH 7, 100 mM Bis-Tris Propane HCl, 30 °C, 3-DHS reduction, pH 7.0.

B1: VvSDH4 (Vitis vinifera) (protein)
chain: GARRNSTLICVPIMADSVDQMLGQIRKAKEVGGDLVEIRLDYLKNFSPRQDLQFLVKQSPLPTLVTYRPTWEGGQYDGDEGKRLDALRLAIELGADYIDVELQVAPEFINSIQGKTSGKVKIIVSSHNYQNTPSAEELGNLVARIQATGADIVKIATTALDITDCARIFQVLAHSQVPTIGIAMAERGLISRILSAKFGSYLTFGSLEAGVVSAPGQPTVKDLLDLYNFRQIGPDTKVHGVIGKPIGHSKSPHLYNSAFKSVGFNGIYLPLLVDSVKNFLATYSSPDFVGYSYTIPHKEDGLRCCDEIDPIAQAIGAISCMIRRPADGKLMGYNVDYLGAIAAIEEGLRASNGTTSVGSPLAGKLFVVIGAGGAGKALAYGGKEKGARVVVANRTFEKAKELASKVGGEAMTLAELENFHPEDGMILANTTSVGMKPNIDNTPLSKKALSRYSLVFDAIYTPKLTRLLREAQESGAIIVYGTEMFINQAFVQFERFTGLPAPKELIREVLVRNT
notes: partial cDNA lacking the first 17 aa (putative transit peptide); E. coli BL21(DE3); GST tag removed
B1: in “purified protein [1]”, the Km worked out at 146.8 ± 60 µM, the Vmax was determined as 27.6 µmol/min/mg, the kcat worked out at 26.1 ± 4.97 s⁻¹ and the kcat/Km stood at 178000 M⁻¹ s⁻¹. Also, in the data set “purified protein [2]” (varied: cofactor), the Km was 53.8 ± 5.8 µM, the maximum rate (Vmax) was 30 µmol/min/mg, the kcat turned out to be 28.9 ± 1.06 s⁻¹ and the kcat/Km is 537000 M⁻¹ s⁻¹.

B2: VvSDH1 (Vitis vinifera) (protein)
chain: MESGGMSKNSTLICVPIMGETIEKMVVDMSKAKTSGADLVEVRLDTLKRFNPRQDLEVLIRKCPLPTLFTYRPKWEGGQYEGDENSRRDALRLAMELGADYVDIELKVAHEFINSIHGRKPEKFKVIVSSHNYQNTPSVEDLGNLVVSIQATGADIVKIATTALEITDVARIFQITVHSQVPVIGLVMGERGLISRILCPKFSGYLTFGSLEPGIVSAPGQPTIKDLLNLYNFRQLGPDTKVFGVIGKPVSHSKSPHLYNEAFKSVGFNGVYVHLLVDDIAKFFHTYSAADFAGFSCTIPHKEAALKCCDEVSPVAKSIGAVNCIIRRPSDGKLFGYNTDYVGAISAIEDGLRDLHKISSTSGSPLAGKLFVVIGAGGAGKALAYGAKEKGARVVIANRTYARARELADAVGGDALSLADLNNFHPENGMILANTTSIGMQPKVDETPISKHALKYYSLVFDAIYTPKITRLLREAQESGATIVTGLEMFIGQAYEQFERFTGLPAPKELFKQFISNLQ
notes: E. coli BL21(DE3); GST tag removed after purification
Take B2: in the data set “purified protein [3]”, the Km was determined as 156.9 ± 31.3 µM, the Vmax is 102 µmol/min/mg, the kcat amounted to 95.8 ± 10.2 s⁻¹ and the kcat/Km stood at 611000 M⁻¹ s⁻¹. Besides, in “purified protein [1]” (pH 9.0), the Km came to 90 ± 16 µM, the maximal velocity (Vmax) came out at 100 µmol/min/mg, the kcat worked out at 94.5 ± 7.2 s⁻¹ and the kcat/Km is 1.05e+06 M⁻¹ s⁻¹. In the data set “purified protein [2]” (pH 9.0, varied: cofactor), the Km was 214.7 ± 56.4 µM, the Vmax amounted to 254 µmol/min/mg, the kcat worked out at 239 ± 26.3 s⁻¹ and the kcat/Km was 1.11e+06 M⁻¹ s⁻¹.

B3: VvSDH3 (Vitis vinifera) (protein)
chain: MGSLPFTVSDLQTSVSGVRSNPTLLCTPLMGTTVEQMLTEMRKAKEIGADIVEIRLDCLRNFSPAQDLQILIKQSPLPTLVTYRPIWEGGQYEGDENKRQDALRLAMELGASYIDVELEVAHEFNNSIYGKKPQNFKVIVSSHNFHNTPSTEAIGNLVARIQASGADIVKIATTALDITDVARVLQVTVHSQVPTIAIVMGERGLISRLLSPKFGGYLTYGALEAGAISAPGQPTAKDLLDLYNFRLVKPDTKVYGIIGKPVGHSKSPLLFNAAFKKVGLNAVYVHLLVDDVEKFFNTYSAPDFISGCSCTIPHKEVAIKCMDTIDPIARKIGAINNIVRKPDGKLTAFNTDYIGAIEAIEDGLRESNGSSPAVGSPLAGKLFVVLGAGGAGKSLAYGAKEKGARVVVANRTFERAKDLADKVGGQALTLAEIENFHPEEGMILANTTSVGMKPKINDTPIPKHALKHYSLVFDAIYTPKDTRLLREAKESGKIIVYGTEMLIRQGFEQYKNFTGLPAPEELFRELMSKHA
notes: as for B2
For B3, in the data set “purified protein [3]”, the Michaelis constant (Km) came out at 46.3 ± 18.2 µM, the Vmax was 9 µmol/min/mg, the kcat was found to be 8.62 ± 0.93 s⁻¹ and the specificity constant (kcat/Km) is 186000 M⁻¹ s⁻¹. In the data set “purified protein [1]” (pH 9.0), the Km worked out at 27.3 ± 10.4 µM, the Vmax was 5.4 µmol/min/mg, the kcat was found to be 5.16 ± 0.56 s⁻¹ and the kcat/Km stood at 189000 M⁻¹ s⁻¹. In addition, in the data set “purified protein [2]” (pH 9.0, varied: cofactor), the Michaelis constant (Km) was 38.4 ± 11.9 µM, the Vmax was determined as 27 µmol/min/mg, the kcat worked out at 26.1 ± 2.68 s⁻¹ and the kcat/Km was 680000 M⁻¹ s⁻¹.

Broadly, the Km is the substrate concentration at which the rate is half of its maximum. In general, Vmax refers to the top rate of the reaction or transport when substrate is in excess. As a reminder, the kcat is the number of substrate molecules converted per active site and unit of time at saturation. The kcat/Km is the turnover number divided by the Michaelis constant.

Values taken from paper PMC4892741, “Two shikimate dehydrogenases, VvSDH3 and VvSDH4, are involved in gallic acid biosynthesis in grapevine” (Journal of Experimental Botany, 2016).
